Assay results taken from the supplement of paper PMC5998384.

What was measured:
HeLa Kyoto [1] = assay: solubility in G1/S (NP-40 vs SDS abundance) (log2 ratio); higher = more soluble; settings: cell cycle stage: G1/S
HeLa Kyoto [2] = assay: solubility change mitosis vs G1/S (difference of NP-40 vs SDS log2 ratios) (log2 ratio difference); higher = more soluble in mitosis
HeLa Kyoto [3] = assay: thermal stability score vs G1/S (z-score of summed log2 fold changes over temperatures); higher = more thermally stable than in G1/S
[4] = cell cycle stage: early G1 (4.5 h after nocodazole release)
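For solubility change mitosis vs G1/S (difference of NP-40 vs SDS log2 ratios) in this document: synchronized HeLa Kyoto cells (double thymidine block for G1/S, nocodazole release for mitosis), protein amounts in NP-40 versus SDS lysates quantified by mass spectrometry, three biological replicates.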
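For solubility in G1/S (NP-40 vs SDS abundance) in this document: HeLa Kyoto cells arrested at G1/S by double thymidine block, proteins quantified by TMT10plex mass spectrometry in mild NP-40 versus SDS extracts, three biological replicates.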
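For thermal stability score vs G1/S (z-score of summed log2 fold changes over temperatures) in this document: synchronized HeLa Kyoto cells, proteins quantified by TMT10plex mass spectrometry, three biological replicates, mitosis taken 0.5 h after nocodazole release, G1/S directly after double thymidine block.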

Substance	solubility in G1/S (log2) (HeLa Kyoto [1])	solubility change mitosis (log2) (HeLa Kyoto [2])	thermal stability score (HeLa Kyoto [3]; [4])	thermal stability score (HeLa Kyoto [3]; cell cycle stage: mitosis)
MSGPLEGADGGGDPRPGESFCPGGVPSPGPPQHRPCPGPSLADDTDANSNGSSGNESNGHESRGASQRSSHSSSSGNGKDSALLETTESSKSTNSQSPSPPSSSIAYSLLSASSEQDNPSTSGCSSEQSARARTQKELMTALRELKLRLPPERRGKGRSGTLATLQYALACVKQVQANQEYYQQWSLEEGEPCSMDMSTYTLEELEHITSEYTLQNQDTFSVAVSFLTGRIVYISEQAAVLLRCKRDVFRGTRFSELLAPQDVGVFYGSTAPSRLPTWGTGASAGSGLRDFTQEKSVFCRIRGGPDRDPGPRYQPFRLTPYVTKIRVSDGAPAQPCCLLIAERIHSGYEAPRIPPDKRIFTTRHTPSCLFQDVDERAAPLLGYLPQDLLGAPVLLFLHPEDRPLMLAIHKKILQLAGQPFDHSPIRFCARNGEYVTMDTSWAGFVHPWSRKVAFVLGRHKVRTAPLNEDVFTPPAPSPAPSLDTDIQELSEQIHRLLLQPVHSPSPTGLCGVGAVTSPGPLHSPGSSSDSNGGDAEGPGPPAPVTFQQICKDVHLVKHQGQQLFIESRARPQSRPRLPATGTFKAKALPCQSPDPELEAGSAPVQAPLALVPEEAERKEASSCSYQQINCLDSILRYLESCNLPSTTKRKCASSSSYTTSSASDDDRQRTGPVSVGTKKDPPSAALSGEGATPRKEPVVGGTLSPLALANKAESVVSVTSQCSFSSTIVHVGDKKPPESDIIMMEDLPGLAPGPAPSPAPSPTVAPDPAPDAYRPVGLTKAVLSLHTQKEEQAFLSRFRDLGRLRGLDSSSTAPSALGERGCHHGPAPPSRRHHCRSKAKRSRHHQNPRAEAPCYVSHPSPVPPSTPWPTPPATTPFPAVVQPYPLPVFSPRGGPQPLPPAPTSVPPAAFPAPLVTPMVALVLPNYLFPTPSSYPYGALQTPAEGPPTPASHSPSPSLPALAPSPPHRPDSPLFNSRCSSPLQLNLLQLEELPRAEGAAVAGGPGSSAGPPPPSAEAAEPEARLAEVTESSNQDALSGSSDLLELLLQEDSRSGTGSAASGSLGSGLGSGSGSGSHEGGSTSASITRSSQSSHTSKYFGSIDSSEAEAGAARGGAEPGDQVIKYVLQDPIWLLMANADQRVMMTYQVPSRDMTSVLKQDRERLRAMQKQQPRFSEDQRRELGAVHSWVRKGQLPRALDVMACVDCGSSTQDPGHPDDPLFSELDGLGLEPMEEGGGEQGSSGGGSGEGEGCEEAQGGAKASSSQDLAMEEEEEGRSSSSPALPTAGNCTS [PER1]	0.0364	-0.183	0.55	0.377
MSYYQRPFSPSAYSLPASLNSSIVMQHGTSLDSTDTYPQHAQSLDGTTSSSIPLYRSSEEEKRVTVIKAPHYPGIGPVDESGIPTAIRTTVDRPKDWYKTMFKQIHMVHKPDDDTDMYNTPYTYNAGLYNPPYSAQSHPAAKTQTYRPLSKSHSDNSPNAFKDASSPVPPPHVPPPVPPLRPRDRSSTEKHDWDPPDRKVDTRKFRSEPRSIFEYEPGKSSILQHERPASLYQSSIDRSLERPMSSASMASDFRKRRKSEPAVGPPRGLGDQSASRTSPGRVDLPGSSTTLTKSFTSSSPSSPSRAKGGDDSKICPSLCSYSGLNGNPSSELDYCSTYRQHLDVPRDSPRAISFKNGWQMARQNAEIWSSTEETVSPKIKSRSCDDLLNDDCDSFPDPKVKSESMGSLLCEEDSKESCPMAWGSPYVPEVRSNGRSRIRHRSARNAPGFLKMYKKMHRINRKDLMNSEVICSVKSRILQYESEQQHKDLLRAWSQCSTEEVPRDMVPTRISEFEKLIQKSKSMPNLGDDMLSPVTLEPPQNGLCPKRRFSIEYLLEEENQSGPPARGRRGCQSNALVPIHIEVTSDEQPRAHVEFSDSDQDGVVSDHSDYIHLEGSSFCSESDFDHFSFTSSESFYGSSHHHHHHHHHHHRHLISSCKGRCPASYTRFTTMLKHERARHENTEEPRRQEMDPGLSKLAFLVSPVPFRRKKNSAPKKQTEKAKCKASVFEALDSALKDICDQIKAEKKRGSLPDNSILHRLISELLPDVPERNSSLRALRRSPLHQPLHPLPPDGAIHCPPYQNDCGRMPRSASFQDVDTANSSCHHQDRGGALQDRESPRSYSSTLTDMGRSAPRERRGTPEKEKLPAKAVYDFKAQTSKELSFKKGDTVYILRKIDQNWYEGEHHGRVGIFPISYVEKLTPPEKAQPARPPPPAQPGEIGEAIAKYNFNADTNVELSLRKGDRVILLKRVDQNWYEGKIPGTNRQGIFPVSYVEVVKKNTKGAEDYPDPPIPHSYSSDRIHSLSSNKPQRPVFTHENIQGGGEPFQALYNYTPRNEDELELRESDVIDVMEKCDDGWFVGTSRRTKFFGTFPGNYVKRL [SORBS2]	-0.773	0.819	-2.13	0.899
KIAA0430	-0.0573	0.0372	-0.446	-0.799
MWHEARKHERKLRGMMVDYKKRAERRREYYEKIKKDPAQFLQVHGRACKVHLDSAVALAAESPVNMMPWQGDTNNMIDRFDVRAHLDHIPDYTPPLLTTISPEQESDERKCNYERYRGLVQNDFAGISEEQCLYQIYIDELYGGLQRPSEDEKKKLAEKKASIGYTYEDSTVAEVEKAAEKPEEEESAAEEESNSDEDEVIPDIDVEVDVDELNQEQVADLNKQATTYGMADGDFVRMLRKDKEEAEAIKHAKALEEEKAMYSGRRSRRQRREFREKRLRGRKISPPSYARRDSPTYDPYKRSPSESSSESRSRSRSPTPGREEKITFITSFGGSDEEAAAAAAAAAASGVTTGKPPAPPQPGGPAPGRNASARRRSSSSSSSSSASRTSSSRSSSRSSSRSRRGGGYYRSGRHARSRSRSWSRSRSRSRRYSRSRSRGRRHSGGGSRDGHRYSRSPARRGGYGPRRRSRSRSHSGDRYRRGGRGLRHHSSSRSRSSWSLSPSRSRSLTRSRSHSPSPSQSRSRSRSRSQSPSPSPAREKLTRPAASPAVGEKLKKTEPAAGKETGAAKPKLTPQEKLKLRMQKALNRQFKADKKAAQEKMIQQEHERQEREDELRAMARKIRMKERERREKEREEWERQYSRQSRSPSPRYSREYSSSRRRSRSRSRSPHYRH [CLASRP]	-0.572	0.526	0.728	0.776
MTSAAEIKKPPVAPKPKFVVANNKPAPPPIAPKPDIVISSVPQSTKKMKPAIAPKPKVLKTSPVREIGQSPSRKIMLNLEGHKQELAESTDNFNCKYEGNQSNDYISPMCSCSSECIHKLGHRENLCVKQLVLEPLEMNENLENSKIDETLTIKTRSKCDLYGEKAKNQGGVVLKASVLEEELKDALIHQMPPFISAQKHRPTDSPEMNGGCNSNGQFRIEFADLSPSPSSFEKVPDHHSCHLQLPSDECEHFETCQDDSEKSNNCFQSSELEALENGKRSTLISSDGVSKKSEVKDLGPLEIHLVPYTPKFPTPKPRKTRTARLLRQKCVDTPSESTEEPGNSDSSSSCLTENSLKINKISVLHQNVLCKQEQVDKMKLGNKSELNMESNSDAQDLVNSQKAMCNETTSFEKMAPSFDKDSNLSSDSTTVDGSSMSLAVDEGTGFIRCTVSMSLPKQLKLTCNEHLQSGRNLGVSAPQMQKESVIKEENSLRIVPKKPQRHSLPATGVLKKAASEELLEKSSYPSSEEKSSEKSLERNHLQHLCAQNRGVSSSFDMPKRASEKPVWKLPHPILPFSGNPEFLKSVTVSSNSEPSTALTKPRAKSLSAMDVEKCTKPCKDSTKKNSFKKLLSMKLSICFMKSDFQKFWSKSSQLGDTTTGHLSSGEQKGIESDWQGLLVGEEKRSKPIKAYSTENYSLESQKKRKKSRGQTSAANGLRAESLDDQMLSRESSSQAPYKSVTSLCAPEYENIRHYEEIPEYENLPFIMAIRKTQELEWQNSSSMEDADANVYEVEEPYEAPDGQLQLGPRHQHSSSGASQEEQNDLGLGDLPSDEEEIINSSDEDDVSSESSKGEPDPLEDKQDEDNGMKSKVHHIAKEIMSSEKVFVDVLKLLHIDFRDAVAHASRQLGKPVIEDRILNQILYYLPQLYELNRDLLKELEERMLHWTEQQRIADIFVKKGPYLKMYSTYIKEFDKNIALLDEQCKKNPGFAAVVREFEMSPRCANLALKHYLLKPVQRIPQYRLLLTDYLKNLIEDAGDYRDTQDALAVVIEVANHANDTMKQGDNFQKLMQIQYSLNGHHEIVQPGRVFLKEGILMKLSRKVMQPRMFFLFNDALLYTTPVQSGMYKLNNMLSLAGMKVRKPTQEAYQNELKIESVERSFILSASSATERDEWLEAISRAIEEYAKKRITFCPSRSLDEADSENKEEVSPLGSKAPIWIPDTRATMCMICTSEFTLTWRRHHCRACGKIVCQACSSNKYGLDYLKNQPARVCEHCFQELQKLDHQHSPRIGSPGNHKSPSSALSSVLHSIPSGRKQKKIPAALKEVSANTEDSSMSGYLYRSKGNKKPWKHFWFVIKNKVLYTYAASEDVAALESQPLLGFTVIQVKDENSESKVFQLLHKNMLFYVFKAEDAHSAQKWIEAFQEGTIL [FGD6]	-0.0552	0.03	-0.173	0.213
MQRRRRPPPPTSRLPEGCGGGGGGSEEVEVQFSAGRWGSAAAVSAAAAAATRSTEEEEERLEREHFWKIINAFRYYGTSMHERVNRTERQFRSLPANQQKLLPQFLLHLDKIRKCIDHNQEILLTIVNDCIHMFENKEYGEDGNGKIMPASTFDMDKLKSTLKQFVRDWSETGKAERDACYQPIIKEILKNFPKERWDPSKVNILVPGAGLGRLAWEIAMLGYACQGNEWSFFMLFSSNFVLNRCSEINKYKLYPWIHQFSNNRRSADQIRPIFFPDVDPHSLPPGSNFSMTAGDFQEIYSECNTWDCIATCFFIDTAHNVIDYIDTIWKILKPGGIWINLGPLLYHFENLANELSIELSYEDIKNVVLQYGFKVEVEKESVLSTYTVNDLSMMKYYYECVLFVVRKPQ [CARNMT1]	-0.164	-0.117	1.2	1.42
METRYNLKSPAVKRLMKEAAELKDPTDHYHAQPLEDNLFEWHFTVRGPPDSDFDGGVYHGRIVLPPEYPMKPPSIILLTANGRFEVGKKICLSISGHHPETWQPSWSIRTALLAIIGFMPTKGEGAIGSLDYTPEERRALAKKSQDFCCEGCGSAMKDVLLPLKSGSDSSQADQEAKELARQISFKAEVNSSGKTISESDLNHSFSLTDLQDDIPTTFQGATASTSYGLQNSSAASFHQPTQPVAKNTSMSPRQRRAQQQSQRRLSTSPDVIQGHQPRDNHTDHGGSAVLIVILTLALAALIFRRIYLANEYIFDFEL [UBE2J1]	0.222	0.00691	-0.0441	1.77
